Data taken from patent US20140341881A1 (DERMADIS, published 2014).

T1: human kallikrein 14 (hK14) (human, UniProt Q9P0G3 25-251, limits assumed)
T1 sequence (looked up): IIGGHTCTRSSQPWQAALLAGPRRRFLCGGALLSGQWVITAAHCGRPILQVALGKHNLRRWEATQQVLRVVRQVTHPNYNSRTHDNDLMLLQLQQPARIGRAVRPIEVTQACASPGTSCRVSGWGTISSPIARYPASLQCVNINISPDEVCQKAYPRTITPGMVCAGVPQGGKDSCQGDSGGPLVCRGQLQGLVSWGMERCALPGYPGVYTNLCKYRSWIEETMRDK

T2: human neutrophil elastase (HNE) (human, UniProt P08246 30-247, limits assumed)
T2 sequence (looked up): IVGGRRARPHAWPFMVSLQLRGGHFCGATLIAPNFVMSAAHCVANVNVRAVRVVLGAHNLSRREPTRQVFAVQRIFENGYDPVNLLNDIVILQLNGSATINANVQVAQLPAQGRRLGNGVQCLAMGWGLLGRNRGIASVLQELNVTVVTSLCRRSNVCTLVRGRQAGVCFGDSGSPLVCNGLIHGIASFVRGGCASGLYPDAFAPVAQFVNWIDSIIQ


How the values were obtained:
[1] = target: human chymotrypsin (Chtr) (human, UniProt P17538 19-263); assay: cell-based or functional assay
Sequence of human chymotrypsin (Chtr) (P17538 19-263): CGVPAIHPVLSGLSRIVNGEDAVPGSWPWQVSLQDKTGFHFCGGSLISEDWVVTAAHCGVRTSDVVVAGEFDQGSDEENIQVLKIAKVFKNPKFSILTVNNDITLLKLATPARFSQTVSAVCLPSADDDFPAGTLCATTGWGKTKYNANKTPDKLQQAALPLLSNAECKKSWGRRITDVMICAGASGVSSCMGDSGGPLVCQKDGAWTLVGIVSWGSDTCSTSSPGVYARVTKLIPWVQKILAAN

[2] = target: thrombin; assay: cell-based or functional assay
[3] = target: human plasma kallikrein (PK) (human, UniProt P03952 20-638); assay: cell-based or functional assay
Sequence of human plasma kallikrein (PK) (P03952 20-638 limits assumed): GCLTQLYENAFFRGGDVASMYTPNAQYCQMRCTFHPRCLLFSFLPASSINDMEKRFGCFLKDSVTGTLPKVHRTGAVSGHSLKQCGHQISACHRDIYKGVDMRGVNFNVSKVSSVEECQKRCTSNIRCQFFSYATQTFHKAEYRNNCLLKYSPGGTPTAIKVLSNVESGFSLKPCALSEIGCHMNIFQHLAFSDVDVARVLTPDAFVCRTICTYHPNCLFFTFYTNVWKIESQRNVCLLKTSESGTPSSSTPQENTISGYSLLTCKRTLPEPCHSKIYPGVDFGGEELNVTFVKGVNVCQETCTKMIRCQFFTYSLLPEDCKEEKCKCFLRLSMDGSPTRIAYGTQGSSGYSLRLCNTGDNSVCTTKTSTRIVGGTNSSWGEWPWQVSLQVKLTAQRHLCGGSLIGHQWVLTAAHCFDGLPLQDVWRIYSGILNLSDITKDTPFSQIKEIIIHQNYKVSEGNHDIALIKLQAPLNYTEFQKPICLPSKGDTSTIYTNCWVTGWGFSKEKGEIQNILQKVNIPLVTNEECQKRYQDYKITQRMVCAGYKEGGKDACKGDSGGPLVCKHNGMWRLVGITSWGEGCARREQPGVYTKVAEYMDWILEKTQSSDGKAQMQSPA

[4] = target: T1, human kallikrein 14 (hK14); assay: cell-based or functional assay
[5] = target: urokinase plasminogen activator (uPA) (UniProt P00749 21-431, limits assumed); assay: cell-based or functional assay
[6] = target: T2, human neutrophil elastase (HNE); assay: cell-based or functional assay
[7] = target: T1, human kallikrein 14 (hK14); assay: residual hK14 activity against [I0]/[E0]
Procedure: SI values of rAAT, rACT, and their variants were determined with hK14 incubating the protease with varying concentrations of inhibitor. After an incubation of 4 hours at 37° C. in reaction buffer (50 mM Tris, pH 7.5, 150 mM NaCl, 0.05% Triton X-100, 0.01% BSA), the residual activity was detected by the addition of fluorescent substrate (Boc-Val-Pro-Arg-AMC). Fluorescence was measured with excitation at 340 nm (±15) and emission at 485 nm (±10) in black 96 well plates using a microplate fluorescence reader FLₓ800 (Bio-Tek Instruments, Inc.). The SI value corresponds to the abscissa intercept of the linear regression analysis of fractional velocity (velocity of inhibited enzyme reaction (vi)/velocity of uninhibited enzyme reaction (v₀)) vs. the molar ratio of the inhibitor to enzyme ([I₀]/[E₀]).

[8] = target: T1, human kallikrein 14 (hK14); assay: progress curve; * [I0]/[E0] < 5 * SI
Procedure: The association rate constants for interactions of hK14, with different inhibitors were determined under pseudo-first order conditions using the progress curve method (Morrison and Walsh, 1988). Under these conditions, a fixed amount of enzyme (2 nM) was mixed with different concentrations of inhibitor (0-80 nM) and an excess of substrate (20 μM). Reactions were performed in reaction buffer (50 mM Tris pH 7.5, 150 mM NaCl, 0.05% Triton X-100, 0.01% BSA) at 37° C. for 45 min and the rate of product formation was measured using a FLₓ800 fluorescence 96-well microplate reader (Biotek, USA) Inhibition is considered to be irreversible over the course of reaction and the progression of enzyme activity is expressed as product formation (P), beginning at a rate (vz) and is inhibited over time (t) at a first-order rate (kobs), where the rate constant is only dependent on the inhibitor concentration.

| Binder | % Inhibition [1] [%] | % Inhibition [2] [%] | % Inhibition [3] [%] | % Inhibition [4] [%] | % Inhibition [5] [%] | % Inhibition [6] [%] | SI (stoichiometry of inhibition) [7] | kon [8] [M⁻¹ s⁻¹] |
| --- | --- | --- | --- | --- | --- | --- | --- | --- |
| AATC11 (other, human, mature) HHHHHHEDPQGDAAQKTDTSHHDQDHPTFNKITPNLAEFAFSLYRQLAHQSNSTNIFFSPVSIATAFAMLSLGTKADTHDEILEGLNFNLTEIPEAQIHEGFQELLRTLNQPDSQLQLTTGNGLFLSEGLKLVDKFLEDVKKLYHSEAFTVNFGDTEEAKKQINDYVEKGTQGKIVDLVKELDRDTVFALVNYIFFKGKWERPFEVKDTEEEDFHVDQVTTVKVPMMKRLGMFNIQHCKKLSSWVLLMKYLGNATAIFFLPDEGKLQHLENELTHDIITKFLENEDRRSASLHLPKLSITGTYDLKSVLGQLGITKVFSNGADLSGVTEEAPLKLSKAVHKAVLTIDEKGTEAAGAMFLEAIPRQTNPEVKFNKPFVFLMIEQNTKSPLFMGKVVNPTQK | 18 | 100 | 8 | 100 | 0 | 0 | 2.8 |  |
| AATE5 (other, human, mature) HHHHHHEDPQGDAAQKTDTSHHDQDHPTFNKITPNLAEFAFSLYRQLAHQSNSTNIFFSPVSIATAFAMLSLGTKADTHDEILEGLNFNLTEIPEAQIHEGFQELLRTLNQPDSQLQLTTGNGLFLSEGLKLVDKFLEDVKKLYHSEAFTVNFGDTEEAKKQINDYVEKGTQGKIVDLVKELDRDTVFALVNYIFFKGKWERPFEVKDTEEEDFHVDQVTTVKVPMMKRLGMFNIQHCKKLSSWVLLMKYLGNATAIFFLPDEGKLQHLENELTHDIITKFLENEDRRSASLHLPKLSITGTYDLKSVLGQLGITKVFSNGADLSGVTEEAPLKLSKAVHKAVLTIDEKGTEAAGAMFLEANQRSSPPEVKFNKPFVFLMIEQNTKSPLFMGKVVNPTQK |  |  |  |  |  |  | 10 |  |
| AATF3 (other, human, mature) HHHHHHEDPQGDAAQKTDTSHHDQDHPTFNKITPNLAEFAFSLYRQLAHQSNSTNIFFSPVSIATAFAMLSLGTKADTHDEILEGLNFNLTEIPEAQIHEGFQELLRTLNQPDSQLQLTTGNGLFLSEGLKLVDKFLEDVKKLYHSEAFTVNFGDTEEAKKQINDYVEKGTQGKIVDLVKELDRDTVFALVNYIFFKGKWERPFEVKDTEEEDFHVDQVTTVKVPMMKRLGMFNIQHCKKLSSWVLLMKYLGNATAIFFLPDEGKLQHLENELTHDIITKFLENEDRRSASLHLPKLSITGTYDLKSVLGQLGITKVFSNGADLSGVTEEAPLKLSKAVHKAVLTIDEKGTEAAGAMFLEAPDRHMPPEVKFNKPFVFLMIEQNTKSPLFMGKVVNPTQK |  |  |  |  |  |  | 11.7 |  |
| AATG1 (other, human, mature) HHHHHHEDPQGDAAQKTDTSHHDQDHPTFNKITPNLAEFAFSLYRQLAHQSNSTNIFFSPVSIATAFAMLSLGTKADTHDEILEGLNFNLTEIPEAQIHEGFQELLRTLNQPDSQLQLTTGNGLFLSEGLKLVDKFLEDVKKLYHSEAFTVNFGDTEEAKKQINDYVEKGTQGKIVDLVKELDRDTVFALVNYIFFKGKWERPFEVKDTEEEDFHVDQVTTVKVPMMKRLGMFNIQHCKKLSSWVLLMKYLGNATAIFFLPDEGKLQHLENELTHDIITKFLENEDRRSASLHLPKLSITGTYDLKSVLGQLGITKVFSNGADLSGVTEEAPLKLSKAVHKAVLTIDEKGTEAAGAMFLEGSLRSIPPEVKFNKPFVFLMIEQNTKSPLFMGKVVNPTQK | 27 | 51 | 100 | 100 | 17 | 0 | 3.6 |  |
| AATG1g (other, human, mature) HHHHHHEDPQGDAAQKTDTSHHDQDHPTFNKITPNLAEFAFSLYRQLAHQSNSTNIFFSPVSIATAFAMLSLGTKADTHDEILEGLNFNLTEIPEAQIHEGFQELLRTLNQPDSQLQLTTGNGLFLSEGLKLVDKFLEDVKKLYHSEAFTVNFGDTEEAKKQINDYVEKGTQGKIVDLVKELDRDTVFALVNYIFFKGKWERPFEVKDTEEEDFHVDQVTTVKVPMMKRLGMFNIQHCKKLSSWVLLMKYLGNATAIFFLPDEGKLQHLENELTHDIITKFLENEDRRSASLHLPKLSITGTYDLKSVLGQLGITKVFSNGADLSGVTEEAPLKLSKAVHKAVLTIDEKGTEAAGAMFLEGSLRGIPPEVKFNKPFVFLMIEQNTKSPLFMGKVVNPTQK | 17 | 0 | 100 | 100 | 0 | 0 | 2.3 |  |
| ACTC11 (other, also called rACTC11) MRGSHHHHHHSRHPNSPLDEENLTQENQDRGTHVDLGLASANVDFAFSLYKQLVLKAPDKNVIFSPLSISTALAFLSLGAHNTTLTEILKGLKFNLTETSEAEIHQSFQHLLRTLNQSSDELQLSMGNAMFVKEQLSLLDRFTEDAKRLYGSEAFATDFQDSAAAKKLINDYVKNGTRGKITDLIKDLDSQTMMVLVNYIFFKAKWEMPFDPQDTHQSRFYLSKKKWVMVPMMSLHHLTIPYFRDEELSCTVVELKYTGNASALFILPDQDKMEEVEAMLLPETLKRWRDSLEFREIGELYLPKFSISRDYNLNDILLQLGIEEAFTSKADLSGITGARNLAVSQVVHKAVLDVFEEGTEASAATAVKITLRQTNVETRTIVRFNRPFLMIIVPTDTQNIFFMSKVTNPKQA | 84 | 0 | 0 | 100 | 0 | 0 | 4.8 | 65000 |
| ACTC11D (other, also called rACTC11D) MRGSHHHHHHSRHPNSPLDEENLTQENQDRGTHVDLGLASANVDFAFSLYKQLVLKAPDKNVIFSPLSISTALAFLSLGAHNTTLTEILKGLKFNLTETSEAEIHQSFQHLLRTLNQSSDELQLSMGNAMFVKEQLSLLDRFTEDAKRLYGSEAFATDFQDSAAAKKLINDYVKNGTRGKITDLIKDLDSQTMMVLVNYIFFKAKWEMPFDPQDTHQSRFYLSKKKWVMVPMMSLHHLTIPYFRDEELSCTVVELKYTGNASALFILPDQDKMEEVEAMLLPETLKRWRDSLEFREIGELYLPKFSISRDYNLNDILLQLGIEEAFTSKADLSGITGARNLAVSQVVHKAVLDVFEEGTEASAATAVKITLRQTNDETRTIVRFNRPFLMIIVPTDTQNIFFMSKVTNPKQA | 83 | 0 | 0 | 100 | 0 | 0 | 2.8 | 74000 |
| ACTG1v (other) MRGSHHHHHHSRHPNSPLDEENLTQENQDRGTHVDLGLASANVDFAFSLYKQLVLKAPDKNVIFSPLSISTALAFLSLGAHNTTLTEILKGLKFNLTETSEAEIHQSFQHLLRTLNQSSDELQLSMGNAMFVKEQLSLLDRFTEDAKRLYGSEAFATDFQDSAAAKKLINDYVKNGTRGKITDLIKDLDSQTMMVLVNYIFFKAKWEMPFDPQDTHQSRFYLSKKKWVMVPMMSLHHLTIPYFRDEELSCTVVELKYTGNASALFILPDQDKMEEVEAMLLPETLKRWRDSLEFREIGELYLPKFSISRDYNLNDILLQLGIEEAFTSKADLSGITGARNLAVSQVVHKAVLDVFEEGTEASAATAVVGSLRSALVETRTIVRFNRPFLMIIVPTDTQNIFFMSKVTNPKQA |  |  |  |  |  |  | 11.7 | 22000 |
| AATC11g (other) MRGSHHHHHHGSDDPQGDAAQKTDTSHHDQDHPTFNKITPNLAEFAFSLYRQLAHQSNSTNIFFSPVSIATAFAMLSLGTKADTHDEILEGLNFNLTEIPEAQIHEGFQELLRTLNQPDSQLQLTTGNGLFLSEGLKLVDKFLEDVKKLYHSEAFTVNFGDTEEAKKQINDYVEKGTQGKIVDLVKELDRDTVFALVNYIFFKGKWERPFEVKDTEEEDFHVDQATTVKVPMMKRLGMFNIQHCKKLSSWVLLMKYLGNATAIFFLPDEGKLQHLENELTHDIITKFLENEDRRSASLHLPKLSITGTYDLKSVLGQLGITKVFSNGADLSGVTEEAPLKLSKAVHKAVLTIDEKGTEAAGAMFLEAIGRQTNPEVKFNKPFVFLMIEQNTKSPLFMGKVVNPTQK |  |  |  |  |  |  | 9 | 42000 |
